From patent publication US20210324063A1 (KODIAK SCIENCES, published 2021)

B1: OG1950 (antibody, IgG1)
heavy: EVQLVESGGGLVQPGGSLRLSCAASGYDFTHYGMNWVRQAPGKGLEWVGWINTYTGEPTYAADFKRRFTFSLDTSKSTAYLQMNSLRAEDTAVYYCAKYPYYYGTSHWYFDVWGQGTLVTVSSASTKGPSVFPLAPSSKSTSGGTAALGCLVKDYFPEPVTVSWNSGALTSGVHTFPAVLQSSGLYSLSSVVTVPSSSLGTQTYICNVNHKPSNTKVDKKVEPKSCDKTHTCPPCPAPEAAGAPSVFLFPPKPKDTLMISRTPEVTCVVVDVSHEDPEVKFNWYVDGVEVHNAKTKPREEQYNSTYRVVSVLTVLHQDWLNGKEYKCKVSNKALPAPIEKTISKAKGQPREPQVYTLPPSREEMTKNQVSLTCLVKGFYPSDIAVEWESNGQPENNYKTTPPVLDSDGSFFLYSKLTVDKSRWQQGNVFSCSVMHEALHNHYTQKSLSCSPGK
light: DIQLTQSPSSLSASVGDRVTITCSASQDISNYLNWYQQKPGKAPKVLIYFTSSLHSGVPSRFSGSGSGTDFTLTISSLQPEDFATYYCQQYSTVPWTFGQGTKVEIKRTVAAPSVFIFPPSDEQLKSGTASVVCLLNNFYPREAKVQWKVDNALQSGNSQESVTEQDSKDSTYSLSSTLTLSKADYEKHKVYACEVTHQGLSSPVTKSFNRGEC
notes: also called anti-VEGF-A antibody with an L443C (EU numbering) mutation; unconjugated antibody
B2: Avastin (bevacizumab) (antibody, human IgG1, kappa)
heavy: not shown
light: not shown
notes: Commercial product

Key:
Histidine-tagged FcγRI = target: T1, Histidine-tagged FcγRI (UniProt P12314 16-288, limits assumed); assay: SPR (BIAcore T200), his-tagged receptor captured by anti-his antibody on a CM5 chip, antibody as analyte, single-cycle kinetics, 25 C
T1 construct: also called Fc gamma receptor I; not shown: histidine tag
Method: (§1) Binding kinetics experiments were performed at 25° C. using a BIAcore T200. An anti-his antibody was immobilized on a CM5 chip. Histidine-tagged FcγRI and FcγRIIIa at a concentration of 0.5 μg/mL prepared in HBS-EP buffer (0.01M HEPES pH7.4, 0.15M NaCl, 3 mM EDTA, 0.005% Tween-20) were injected independently for 60-s using a flow rate of 5 μL/min in the active flow cell only. […] Antibody concentrations in the range of 0.48 to 300 nM were used for FcγRI and 7.8 nM to 2000 nM for FcγRIIIa. Following each run, flow cells were regenerated with a 60 s injection of 10 mM glycine pH 1.7 using a flow-rate of […]. Data was double referenced, using subtraction of both reference flow cell and blank cycles. Analysis was performed using BIA evaluation software.

[1] = target: T2, Histidine-tagged FcγRIIIa (UniProt P08637 17-208, limits assumed); assay: as above
T2 construct: also called Fc gamma receptor IIIa; not shown: histidine tag
Method: as §1

Purified human C1q = target: T3, Purified human C1q (human, UniProt P02745 23-245; P02746 28-253; P02747 29-245); assay: ELISA: antibody coated on the plate in 1:2 titration, purified human C1q at 5 ug/mL, HRP anti-human C1q detection
T3 construct: also called human complement protein C1q
Method: Complement engagement liabilities were assessed by C1q ELISA binding. The antibody panel was titrated 1:2 from a top concentration of 10 ug/mL in 1×PBS for overnight coating at 4 C. Plates were then blocked After a 2 hour blocking step in 1% BSA. Purified human C1q was then applied at 5 ug/mL in 1% BSA for 2 hours at room temperature followed by detection with HRP-conjugated anti-human C1q antibody and TMB development.

T3 sequence (P02745 23-245 limits assumed, chain 1 of 3): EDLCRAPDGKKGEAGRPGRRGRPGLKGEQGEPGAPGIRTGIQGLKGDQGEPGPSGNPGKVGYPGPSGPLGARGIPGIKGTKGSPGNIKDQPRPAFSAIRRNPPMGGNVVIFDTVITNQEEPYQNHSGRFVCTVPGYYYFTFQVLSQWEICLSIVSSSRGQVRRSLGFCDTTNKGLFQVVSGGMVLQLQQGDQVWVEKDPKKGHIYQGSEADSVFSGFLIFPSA
T3 sequence (P02746 28-253 limits assumed, chain 2 of 3): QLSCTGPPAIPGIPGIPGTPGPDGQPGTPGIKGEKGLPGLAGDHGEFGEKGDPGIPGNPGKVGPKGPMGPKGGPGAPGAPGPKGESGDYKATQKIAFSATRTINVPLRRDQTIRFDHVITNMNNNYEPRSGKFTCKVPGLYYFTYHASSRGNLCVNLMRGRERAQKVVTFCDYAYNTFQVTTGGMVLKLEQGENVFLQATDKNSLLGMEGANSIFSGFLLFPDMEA
T3 sequence (P02747 29-245 limits assumed, chain 3 of 3): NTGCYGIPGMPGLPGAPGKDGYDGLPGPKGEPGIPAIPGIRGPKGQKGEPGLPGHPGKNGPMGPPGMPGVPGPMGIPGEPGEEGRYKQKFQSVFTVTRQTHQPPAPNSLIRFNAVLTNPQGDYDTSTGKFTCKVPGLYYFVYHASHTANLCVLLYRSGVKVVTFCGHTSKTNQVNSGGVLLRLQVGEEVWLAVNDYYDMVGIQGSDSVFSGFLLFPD
T2 sequence (P08637 17-208 limits assumed): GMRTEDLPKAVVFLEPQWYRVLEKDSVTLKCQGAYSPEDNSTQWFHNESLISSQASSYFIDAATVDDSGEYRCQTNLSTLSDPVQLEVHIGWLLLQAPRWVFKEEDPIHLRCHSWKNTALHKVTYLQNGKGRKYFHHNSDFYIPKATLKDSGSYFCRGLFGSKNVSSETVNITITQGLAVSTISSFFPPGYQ
T1 sequence (P12314 16-288 limits assumed): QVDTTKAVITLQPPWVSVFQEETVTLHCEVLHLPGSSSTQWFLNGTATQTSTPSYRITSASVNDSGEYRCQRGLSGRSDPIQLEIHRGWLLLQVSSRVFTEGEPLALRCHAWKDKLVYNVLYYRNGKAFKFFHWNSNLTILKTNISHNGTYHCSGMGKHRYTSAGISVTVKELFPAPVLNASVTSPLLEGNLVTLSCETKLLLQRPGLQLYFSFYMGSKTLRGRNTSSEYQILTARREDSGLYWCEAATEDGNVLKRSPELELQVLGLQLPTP

| Binder | binding result (Histidine-tagged FcγRI) | binding result [1] | binding result (Purified human C1q) |
| --- | --- | --- | --- |
| B1 | no binding (tested: 0.48 to 300 nM) | no binding (tested: 7.8 nM to 2000 nM) | binds |
| B2 | – | – | binds |
